Measured values: patent publication US20250282866A1 (VIGIL NEUROSCIENCE, published 2025)

T1: human TREM2 (human, UniProt Q9NZC2 19-174, limits assumed)
T1 construct: also called triggering receptor expressed on myeloid cells 2
T1 sequence: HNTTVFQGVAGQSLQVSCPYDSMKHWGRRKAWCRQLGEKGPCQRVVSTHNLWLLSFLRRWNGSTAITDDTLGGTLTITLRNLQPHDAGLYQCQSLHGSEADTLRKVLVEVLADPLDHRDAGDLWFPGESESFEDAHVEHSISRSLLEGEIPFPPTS


Columns and labels:
human TREM2 [1] = target: T1, human TREM2; assay: 2nd screen 100 nM
human TREM2 [2] = target: T1, human TREM2; assay: 1st screen (110 nM or 10 nM)

Binder	Binding Signal (fold over 6E7 Parental antibody) (human TREM2 [1]) [fold]	Binding Signal (fold over 6E7 Parental antibody) (human TREM2 [2]) [fold]
V6 (antibody, V domains shown) VH: EVQLVQSGAEVKKPGESLKISCKGSGYSFTSMWIAWVRQMPGKGLEWMGIIYPGDSDTRYSPSFQGQVTISADKSISTAYLQWSSLKASDTAMYFCARQRTFYYDSSDYFDYWGQGTLVTVSS VL: DIQMTQSPSSVSASVGDRVTITCRASQGISSWLAWYQQKPGKAPKLLIYAASSLQNGVPSRFSGSGSGTDFTLTISSLQPEDFATYFCQQADSFPRTFGQGTKLEIK	0.56	0.2
V7 (antibody, V domains shown) VH: EVQLVQSGAEVKKPGESLKISCKGSGYSFTSEWIAWVRQMPGKGLEWMGIIYPGDSDTRYSPSFQGQVTISADKSISTAYLQWSSLKASDTAMYFCARQRTFYYDSSDYFDYWGQGTLVTVSS VL: DIQMTQSPSSVSASVGDRVTITCRASQGISSWLAWYQQKPGKAPKLLIYAASSLQNGVPSRFSGSGSGTDFTLTISSLQPEDFATYFCQQADSFPRTFGQGTKLEIK	0.32	0.11
V21 (antibody, V domains shown) VH: EVQLVQSGAEVKKPGESLKISCKGSGYSFTSYWIAWVRQMPGKGLEWMGIIYPGDSDTRYSPSFQGQVTISADKSISTAYLQWSSLKASDTAMYFCARQRTFYYDSSDFFDYWGQGTLVTVSS VL: DIQMTQSPSSVSASVGDRVTITCRASQGISSWLAWYQQKPGKAPKLLIYAASSLQNGVPSRFSGSGSGTDFTLTISSLQPEDFATYFCQQADSFPRTFGQGTKLEIK	0.68	0.76
V35 (antibody, V domains shown) VH: EVQLVQSGAEVKKPGESLKISCKGSGYSFTSYWIAWVRQMPGKGLEWMGIIYPGDSDTRYSPSFQGQVTISADKSISTAYLQWSSLKASDTAMYFCARQRTFYYDSSDYFDYWGQGTLVTVSS VL: DIQMTQSPSSVSASVGDRVTITCRASQGISSWLAWYQQKPGKAPKLLIYAASSLQNGVPSRFSGSGSGTDFTLTISSLQPEDFATYFCQQAYSFPRTFGQGTKLEIK	0.29	0.21
V8 (antibody, V domains shown) VH: EVQLVQSGAEVKKPGESLKISCKGSGYSFTSYWIAWVRQMPGKGLEWMGIIYPGDSDTKYSPSFQGQVTISADKSISTAYLQWSSLKASDTAMYFCARQRTFYYDSSDYFDYWGQGTLVTVSS VL: DIQMTQSPSSVSASVGDRVTITCRASQGISSWLAWYQQKPGKAPKLLIYAASSLQNGVPSRFSGSGSGTDFTLTISSLQPEDFATYFCQQADSFPRTFGQGTKLEIK	0.77	0.28
V23 (antibody, V domains shown) VH: EVQLVQSGAEVKKPGESLKISCKGSGYSFTSYWIAWVRQMPGKGLEWMGIIYPGDSDTRYSPSFQGQVTISADKSISTAYLQWSSLKASDTAMYFCARQRTFYYDSSDYFDYWGQGTLVTVSS VL: DIQMTQSPSSVSASVGDRVTITCRASQGISSWLAWYQQKPGKAPKLLIYAASSLQNGVPSRFSGSGSGTDFTLTISSLQPEDFATYFCQQADSFPLTFGQGTKLEIK	0.4	0.4
V18 (antibody, V domains shown) VH: EVQLVQSGAEVKKPGESLKISCKGSGYSFTSYHIAWVRQMPGKGLEWMGIIYPGDSDTRYSPSFQGQVTISADKSISTAYLQWSSLKASDTAMYFCARQRTFYYDSSDYFDYWGQGTLVTVSS VL: DIQMTQSPSSVSASVGDRVTITCRASQGISSWLAWYQQKPGKAPKLLIYAASSLQNGVPSRFSGSGSGTDFTLTISSLQPEDFATYFCQQADSFPRTFGQGTKLEIK	0.42	0.17
V19 (antibody, V domains shown) VH: EVQLVQSGAEVKKPGESLKISCKGSGYSFTSSWIAWVRQMPGKGLEWMGIIYPGDSDTRYSPSFQGQVTISADKSISTAYLQWSSLKASDTAMYFCARQRTFYYDSSDYFDYWGQGTLVTVSS VL: DIQMTQSPSSVSASVGDRVTITCRASQGISSWLAWYQQKPGKAPKLLIYAASSLQNGVPSRFSGSGSGTDFTLTISSLQPEDFATYFCQQADSFPRTFGQGTKLEIK	0.48	0.59
V32 (antibody, V domains shown) VH: EVQLVQSGAEVKKPGESLKISCKGSGYSFTSYWIAWVRQMPGKGLEWMGIIYPGDSDTRYSNSFQGQVTISADKSISTAYLQWSSLKASDTAMYFCARQRTFYYDSSDYFDYWGQGTLVTVSS VL: DIQMTQSPSSVSASVGDRVTITCRASQGISSWLAWYQQKPGKAPKLLIYAASSLQNGVPSRFSGSGSGTDFTLTISSLQPEDFATYFCQQADSFPRTFGQGTKLEIK	0.89	0.82
V33 (antibody, V domains shown) VH: EVQLVQSGAEVKKPGESLKISCKGSGYSFTSYWIAWVRQMPGKGLEWMGIIYPGDSDTRYSPSFQGQVTISADKSISTAYLQWSSLKASDTAMYFCARQRTFYGDSSDYFDYWGQGTLVTVSS VL: DIQMTQSPSSVSASVGDRVTITCRASQGISSWLAWYQQKPGKAPKLLIYAASSLQNGVPSRFSGSGSGTDFTLTISSLQPEDFATYFCQQADSFPRTFGQGTKLEIK	0.34	0.23
V34 (antibody, V domains shown) VH: EVQLVQSGAEVKKPGESLKISCKGSGYSFTSYWIAWVRQMPGKGLEWMGIIYPGDSDTRYSPSFQGQVTISADKSISTAYLQWSSLKASDTAMYFCARQRTFYYDSSDYFDYWGQGTLVTVSS VL: DIQMTQSPSSVSASVGDRVTITCRASQGISSWLAWYQQKPGKAPKLLIYAASSLQDGVPSRFSGSGSGTDFTLTISSLQPEDFATYFCQQADSFPRTFGQGTKLEIK	1.02	0.34
V42 (antibody, V domains shown) VH: EVQLVQSGAEVKKPGESLKISCKGSGYSFTSAWIAWVRQMPGKGLEWMGIIYPGDSDTRYSPSFQGQVTISADKSISTAYLQWSSLKASDTAMYFCARQRTFYYDSSDYFDYWGQGTLVTVSS VL: DIQMTQSPSSVSASVGDRVTITCRASQGISSWLAWYQQKPGKAPKLLIYAASSLQNGVPSRFSGSGSGTDFTLTISSLQPEDFATYFCQQADSFPRTFGQGTKLEIK	0.41	0.45
V30 (antibody, V domains shown) VH: EVQLVQSGAEVKKPGESLKISCKGSGSSFTSYWIAWVRQMPGKGLEWMGIIYPGDSDTRYSPSFQGQVTISADKSISTAYLQWSSLKASDTAMYFCARQRTFYYDSSDYFDYWGQGTLVTVSS VL: DIQMTQSPSSVSASVGDRVTITCRASQGISSWLAWYQQKPGKAPKLLIYAASSLQNGVPSRFSGSGSGTDFTLTISSLQPEDFATYFCQQADSFPRTFGQGTKLEIK	0.72	0.79
V11 (antibody, V domains shown) VH: EVQLVQSGAEVKKPGESLKISCKGSGYSFTSYWIAWVRQMPGKGLEWMGIIYPGDSDTRYSPSFQGQVTISADKSISTAYLQWSSLKASDTAMYFCARQRTFYYDSSDYFDYWGQGTLVTVSS VL: DIQMTQSPSSVSASVGDRVTITCRASQGISSWLAWYQQKPGKAPKLLIYAASSLQNGVPSRFSGSGSGTDFTLTISSLQPEDFATYFCQQAASFPRTFGQGTKLEIK	0.42	0.79
V22 (antibody, V domains shown) VH: EVQLVQSGAEVKKPGESLKISCKGSGYSFTSYWIAWVRQMPGKGLEWMGIIYPGDSDTRYSPSFQGQVTISADKSISTAYLQWSSLKASDTAMYFCARQRTFYYDSSDYFDYWGQGTLVTVSS VL: DIQMTQSPSSVSASVGDRVTITCRASQGISSWLAWYQQKPGKAPKLLIYRASSLQNGVPSRFSGSGSGTDFTLTISSLQPEDFATYFCQQADSFPRTFGQGTKLEIK	0.71	0.3
V20 (antibody, V domains shown) VH: EVQLVQSGAEVKKPGESLKISCKGSGYSFTSYWIAWVRQMPGKGLEWMGRIYPGDSDTRYSPSFQGQVTISADKSISTAYLQWSSLKASDTAMYFCARQRTFYYDSSDYFDYWGQGTLVTVSS VL: DIQMTQSPSSVSASVGDRVTITCRASQGISSWLAWYQQKPGKAPKLLIYAASSLQNGVPSRFSGSGSGTDFTLTISSLQPEDFATYFCQQADSFPRTFGQGTKLEIK	0.52	0.18
V10 (antibody, V domains shown) VH: EVQLVQSGAEVKKPGESLKISCKGSGYSFTSYWIAWVRQMPGKGLEWMGIIYPGDSDTRYSPSFQGQVTISADKSISTAYLQWSSLKASDTAMYFCARQRTFYYDSSDYFDYWGQGTLVTVSS VL: DIQMTQSPSSVSASVGDRVTITCRASQGISSWLAWYQQKPGKAPKLLIYSASSLQNGVPSRFSGSGSGTDFTLTISSLQPEDFATYFCQQADSFPRTFGQGTKLEIK	0.7	0.76
V9 (antibody, V domains shown) VH: EVQLVQSGAEVKKPGESLKISCKGSGYSFTSYWIAWVRQMPGKGLEWMGIIYPGDSDTRYSPSFQGQVTISADKSISTAYLQWSSLKASDTAMYFCARQRGFYYDSSDYFDYWGQGTLVTVSS VL: DIQMTQSPSSVSASVGDRVTITCRASQGISSWLAWYQQKPGKAPKLLIYAASSLQNGVPSRFSGSGSGTDFTLTISSLQPEDFATYFCQQADSFPRTFGQGTKLEIK	0.54	0.67
